Measurements reported in patent US20230250154A1 (CYTONICS, published 2023).

T1: ADAMTS5 (human, UniProt Q9UNA0 262-622, limits assumed)
T1 sequence (looked up): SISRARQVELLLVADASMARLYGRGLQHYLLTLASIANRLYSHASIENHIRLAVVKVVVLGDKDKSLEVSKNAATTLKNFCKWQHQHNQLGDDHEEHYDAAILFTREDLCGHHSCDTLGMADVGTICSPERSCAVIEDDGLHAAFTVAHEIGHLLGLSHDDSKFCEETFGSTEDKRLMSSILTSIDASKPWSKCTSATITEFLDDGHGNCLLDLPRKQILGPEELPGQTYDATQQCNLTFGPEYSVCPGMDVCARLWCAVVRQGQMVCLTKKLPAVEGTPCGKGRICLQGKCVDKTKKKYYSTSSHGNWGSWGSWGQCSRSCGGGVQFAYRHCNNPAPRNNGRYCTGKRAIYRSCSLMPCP

T2: ADAMTS4 (human, UniProt O75173 213-685, limits assumed)
T2 sequence (looked up): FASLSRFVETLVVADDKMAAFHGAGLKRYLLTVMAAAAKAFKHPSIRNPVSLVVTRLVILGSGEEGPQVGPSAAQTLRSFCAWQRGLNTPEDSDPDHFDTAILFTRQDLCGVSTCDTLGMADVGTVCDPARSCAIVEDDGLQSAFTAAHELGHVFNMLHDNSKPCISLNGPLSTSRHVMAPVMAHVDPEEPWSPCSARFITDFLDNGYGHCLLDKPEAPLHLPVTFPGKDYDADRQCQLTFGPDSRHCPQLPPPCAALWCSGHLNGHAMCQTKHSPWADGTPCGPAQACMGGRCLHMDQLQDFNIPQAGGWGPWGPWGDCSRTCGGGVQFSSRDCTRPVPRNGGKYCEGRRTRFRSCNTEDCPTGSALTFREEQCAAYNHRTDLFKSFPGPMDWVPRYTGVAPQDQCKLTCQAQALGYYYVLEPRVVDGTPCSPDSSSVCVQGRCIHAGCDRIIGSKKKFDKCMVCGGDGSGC


Assays:
Assay in all cases: cell-based or functional assay
[1] = target: MMP13 (human, UniProt P45452 104-471, limits assumed)
[2] = target: T1, ADAMTS5
[3] = target: T2, ADAMTS4

| Protease Inhibition (% of WT) [1] | Protease Inhibition (% of WT) [2] | Protease Inhibition (% of WT) [3] | Binder |
| --- | --- | --- | --- |
| 90 % of WT | 170 % of WT | 100 % of WT | Variant A2M, bait region SEQ ID NO 119 (other) SVSGKPQYMVLVPSLLHTETTEKGCVLLSYLNETVTVSASLESVRGNRSLFTDLEAENDVLHCVAFAVPKSSSNEEVMFLTVQVKGPTQEFKKRTTVMVKNEDSLVFVQTDKSIYKPGQTVKFRVVSMDENFHPLNELIPLVYIQDPKGNRIAQWQSFQLEGGLKQFSFPLSSEPFQGSYKVVVQKKSGGRTEHPFTVEEFVLPKFEVQVTVPKIITILEEEMNVSVCGLYTYGKPVPGHVTVSICRKYSDASDCHGEDSQAFCEKFSGQLNSHGCFYQQVKTKVFQLKRKEYEMKLHTEAQIQEEGTVVELTGRQSSEITRTITKLSFVKVDSHFRQGIPFFGQVRLVDGKGVPIPNKVIFIRGNEANYYSNATTDEHGLVQFSINTTNVMGTSLTVRVNYKDRSPCYGYQWVSEEHEEAHHTAYLVFSPSKSFVHLEPMSHELPCGHTQTVQAHYILNGGTLLGLKKLSFYYLIMAKGGIVRTGTHGLLVKQEDMKGHFSISIPVKSDIAPVARLLIYAVLPTGDVIGDSAKYDVENCLANKVDLSFSPSQSLPASHAHLRVTAAPQSVCALRAVDQSVLLMKPDAELSASSVYNLLPEKDLTGFPGPLNDQDDEDCINRHNVYINGITYTPVSSTNEKDMYSFLEDMGLKAFTNSKIRKPKMCPQLELQQYEMHGPEGLRVGEAIPMSIPIPENFFGVKEEEGLGSKLRKYFPETWIWDLVVVNSAGVAEVGVTVPDTITEWKAGAFCLSEDAGLGISSTASLRAFQPFFVELTMPYSVIRGEAFTLKATVLNYLPKCIRVSVQLEASPAFLAVPVEKEQAPHCICANGRQTVSWAVTPKSLGNVNFTVSAEALESQELCGTEVPSVPEHGRKDTVIKPLLVEPEGLEKETTFNSLLCPSGGEVSEELSLKLPPNVVEESARASVSVLGDILGSAMQNTQNLLQMPYGCGEQNMVLFAPNIYVLDYLNETQQLTPEIKSKAIGYLNTGYQRQLNYKHYDGSYSTFGERYGRNQGNTWLTAFVLKTFAQARAYIFIDEAHITQALIWLSQRQKDNGCFRSSGSLLNNAIKGGVEDEVTLSAYITIALLEIPLTVTHPVVRNALFCLESAWKTAQEGDHGSHVYTKALLAYAFALAGNQDKRKEVLKSLNEEAVKKDNSVHWERPQKPKAPVGHFYEPQAPSAEVEMTSYVLLAYLTAQPAPTSEDLTSATNIVKWITKQQNAQGGFSSTQDTVVALHALSKYGAATFTRTGKAAQVTIQSSGTFSSKFQVDNNNRLLLQQVSLPELPGEYSMKVTGEGCVYLQTSLKYNILPEKEEFPFALGVQTLPQTCDEPKAHTSFQISLSVSYTGSRSASNMAIVDVKMVSGFIPLKPTVKMLERSNHVSRTEVSSNHVLIYLDKVSNQTLSLFFTVLQDVPVRDLKPAIVKVYDYYETDEFAIAEYNAPCSKDLGNADYKDDDDKGASHHHHHH |
| 115 % of WT | 68 % of WT | 64 % of WT | Variant A2M, bait region SEQ ID NO 121 (other) SVSGKPQYMVLVPSLLHTETTEKGCVLLSYLNETVTVSASLESVRGNRSLFTDLEAENDVLHCVAFAVPKSSSNEEVMFLTVQVKGPTQEFKKRTTVMVKNEDSLVFVQTDKSIYKPGQTVKFRVVSMDENFHPLNELIPLVYIQDPKGNRIAQWQSFQLEGGLKQFSFPLSSEPFQGSYKVVVQKKSGGRTEHPFTVEEFVLPKFEVQVTVPKIITILEEEMNVSVCGLYTYGKPVPGHVTVSICRKYSDASDCHGEDSQAFCEKFSGQLNSHGCFYQQVKTKVFQLKRKEYEMKLHTEAQIQEEGTVVELTGRQSSEITRTITKLSFVKVDSHFRQGIPFFGQVRLVDGKGVPIPNKVIFIRGNEANYYSNATTDEHGLVQFSINTTNVMGTSLTVRVNYKDRSPCYGYQWVSEEHEEAHHTAYLVFSPSKSFVHLEPMSHELPCGHTQTVQAHYILNGGTLLGLKKLSFYYLIMAKGGIVRTGTHGLLVKQEDMKGHFSISIPVKSDIAPVARLLIYAVLPTGDVIGDSAKYDVENCLANKVDLSFSPSQSLPASHAHLRVTAAPQSVCALRAVDQSVLLMKPDAELSASSVYNLLPEKDLTGFPGPLNDQDDEDCINRHNVYINGITYTPVSSTNEKDMYSFLEDMGLKAFTNSKIRKPKMCPQLEPESSGEAIPMSIPTSEDLVVQIPENFFGVEAEGTGGERGVLGKLRKYFPETWIWDLVVVNSAGVAEVGVTVPDTITEWKAGAFCLSEDAGLGISSTASLRAFQPFFVELTMPYSVIRGEAFTLKATVLNYLPKCIRVSVQLEASPAFLAVPVEKEQAPHCICANGRQTVSWAVTPKSLGNVNFTVSAEALESQELCGTEVPSVPEHGRKDTVIKPLLVEPEGLEKETTFNSLLCPSGGEVSEELSLKLPPNVVEESARASVSVLGDILGSAMQNTQNLLQMPYGCGEQNMVLFAPNIYVLDYLNETQQLTPEIKSKAIGYLNTGYQRQLNYKHYDGSYSTFGERYGRNQGNTWLTAFVLKTFAQARAYIFIDEAHITQALIWLSQRQKDNGCFRSSGSLLNNAIKGGVEDEVTLSAYITIALLEIPLTVTHPVVRNALFCLESAWKTAQEGDHGSHVYTKALLAYAFALAGNQDKRKEVLKSLNEEAVKKDNSVHWERPQKPKAPVGHFYEPQAPSAEVEMTSYVLLAYLTAQPAPTSEDLTSATNIVKWITKQQNAQGGFSSTQDTVVALHALSKYGAATFTRTGKAAQVTIQSSGTFSSKFQVDNNNRLLLQQVSLPELPGEYSMKVTGEGCVYLQTSLKYNILPEKEEFPFALGVQTLPQTCDEPKAHTSFQISLSVSYTGSRSASNMAIVDVKMVSGFIPLKPTVKMLERSNHVSRTEVSSNHVLIYLDKVSNQTLSLFFTVLQDVPVRDLKPAIVKVYDYYETDEFAIAEYNAPCSKDLGNADYKDDDDKGASHHHHHH |
| 121 % of WT | 100 % of WT | 88 % of WT | Variant A2M, bait region SEQ ID NO 120 (other) SVSGKPQYMVLVPSLLHTETTEKGCVLLSYLNETVTVSASLESVRGNRSLFTDLEAENDVLHCVAFAVPKSSSNEEVMFLTVQVKGPTQEFKKRTTVMVKNEDSLVFVQTDKSIYKPGQTVKFRVVSMDENFHPLNELIPLVYIQDPKGNRIAQWQSFQLEGGLKQFSFPLSSEPFQGSYKVVVQKKSGGRTEHPFTVEEFVLPKFEVQVTVPKIITILEEEMNVSVCGLYTYGKPVPGHVTVSICRKYSDASDCHGEDSQAFCEKFSGQLNSHGCFYQQVKTKVFQLKRKEYEMKLHTEAQIQEEGTVVELTGRQSSEITRTITKLSFVKVDSHFRQGIPFFGQVRLVDGKGVPIPNKVIFIRGNEANYYSNATTDEHGLVQFSINTTNVMGTSLTVRVNYKDRSPCYGYQWVSEEHEEAHHTAYLVFSPSKSFVHLEPMSHELPCGHTQTVQAHYILNGGTLLGLKKLSFYYLIMAKGGIVRTGTHGLLVKQEDMKGHFSISIPVKSDIAPVARLLIYAVLPTGDVIGDSAKYDVENCLANKVDLSFSPSQSLPASHAHLRVTAAPQSVCALRAVDQSVLLMKPDAELSASSVYNLLPEKDLTGFPGPLNDQDDEDCINRHNVYINGITYTPVSSTNEKDMYSFLEDMGLKAFTNSKIRKPKMCPQLEEEGVEEGKEEEGLGSGPAGAARGSELEGRGSPTEGEARGSKLRKYFPETWIWDLVVVNSAGVAEVGVTVPDTITEWKAGAFCLSEDAGLGISSTASLRAFQPFFVELTMPYSVIRGEAFTLKATVLNYLPKCIRVSVQLEASPAFLAVPVEKEQAPHCICANGRQTVSWAVTPKSLGNVNFTVSAEALESQELCGTEVPSVPEHGRKDTVIKPLLVEPEGLEKETTFNSLLCPSGGEVSEELSLKLPPNVVEESARASVSVLGDILGSAMQNTQNLLQMPYGCGEQNMVLFAPNIYVLDYLNETQQLTPEIKSKAIGYLNTGYQRQLNYKHYDGSYSTFGERYGRNQGNTWLTAFVLKTFAQARAYIFIDEAHITQALIWLSQRQKDNGCFRSSGSLLNNAIKGGVEDEVTLSAYITIALLEIPLTVTHPVVRNALFCLESAWKTAQEGDHGSHVYTKALLAYAFALAGNQDKRKEVLKSLNEEAVKKDNSVHWERPQKPKAPVGHFYEPQAPSAEVEMTSYVLLAYLTAQPAPTSEDLTSATNIVKWITKQQNAQGGFSSTQDTVVALHALSKYGAATFTRTGKAAQVTIQSSGTFSSKFQVDNNNRLLLQQVSLPELPGEYSMKVTGEGCVYLQTSLKYNILPEKEEFPFALGVQTLPQTCDEPKAHTSFQISLSVSYTGSRSASNMAIVDVKMVSGFIPLKPTVKMLERSNHVSRTEVSSNHVLIYLDKVSNQTLSLFFTVLQDVPVRDLKPAIVKVYDYYETDEFAIAEYNAPCSKDLGNADYKDDDDKGASHHHHHH |
